This note sets out measurements from PMC6451933.

For this experiment, the target named is t-SNARE complex (syntaxin 1 and SNAP25) (UniProt Q16623).
t-SNARE complex (syntaxin 1 and SNAP25), sequence (Q16623 whole entry, chain 1 of 2): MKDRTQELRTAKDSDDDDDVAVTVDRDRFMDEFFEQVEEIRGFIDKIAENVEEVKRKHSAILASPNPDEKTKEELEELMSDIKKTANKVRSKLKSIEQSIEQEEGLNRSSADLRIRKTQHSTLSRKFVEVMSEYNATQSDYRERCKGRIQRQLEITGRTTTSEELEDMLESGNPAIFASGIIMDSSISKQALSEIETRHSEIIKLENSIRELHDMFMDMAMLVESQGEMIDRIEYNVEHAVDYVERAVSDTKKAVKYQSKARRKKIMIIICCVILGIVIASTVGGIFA
t-SNARE complex (syntaxin 1 and SNAP25), sequence (chain, as listed by the source, chain 2 of 2): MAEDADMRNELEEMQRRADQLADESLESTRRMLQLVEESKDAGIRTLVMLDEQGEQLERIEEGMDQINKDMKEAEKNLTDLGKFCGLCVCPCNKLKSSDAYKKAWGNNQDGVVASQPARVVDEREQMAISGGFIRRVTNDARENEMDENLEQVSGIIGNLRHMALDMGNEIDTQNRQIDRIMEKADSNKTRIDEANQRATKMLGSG

The substance “VAMP2 p.Ser75Pro variant (from UniProt P63027 1-116) (natural protein)” returned a reconstituted liposome lipid-mixing assay (NBD dequenching), basal fusion without Munc18-1 of v-liposomes with t-SNARE liposomes, against WT VAMP2 of 25%.
